Source: patent US20180185504A1 (Regeneron, published 2018)
One block for each binder: values may come before it.

Columns and labels:
[1] = biological target: T1, monkey macaca fascicularis PRLR construct with an HA tag on HEK293/mfPRLR cells (macaca fascicularis, UniProt A0A2K5WXK1 25-619); assay: FACS on HEK293/mfPRLR cells
T1 construct: stably transfected into HEK293
T1 sequence: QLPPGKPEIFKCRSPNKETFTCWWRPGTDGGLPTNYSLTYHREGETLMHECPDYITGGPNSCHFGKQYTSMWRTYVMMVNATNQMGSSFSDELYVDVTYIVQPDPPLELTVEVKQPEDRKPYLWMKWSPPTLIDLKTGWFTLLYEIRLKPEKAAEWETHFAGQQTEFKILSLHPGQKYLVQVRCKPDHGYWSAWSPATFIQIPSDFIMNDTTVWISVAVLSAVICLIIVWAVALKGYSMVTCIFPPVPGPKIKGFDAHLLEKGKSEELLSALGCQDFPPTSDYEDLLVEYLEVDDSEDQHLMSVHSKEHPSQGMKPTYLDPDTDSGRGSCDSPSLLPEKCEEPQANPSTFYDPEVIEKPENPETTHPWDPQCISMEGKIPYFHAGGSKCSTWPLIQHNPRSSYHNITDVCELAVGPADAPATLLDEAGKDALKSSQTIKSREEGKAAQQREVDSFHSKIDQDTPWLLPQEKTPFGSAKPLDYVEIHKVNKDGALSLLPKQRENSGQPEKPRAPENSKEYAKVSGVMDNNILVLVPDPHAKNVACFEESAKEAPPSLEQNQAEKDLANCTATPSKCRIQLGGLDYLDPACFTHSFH

[2] = biological target: T2, human PRLR on cells (endogenous on T47D, T47D#11, MCF7); introduced in HEK293/hPRLR/STAT5-Luc, 293/hPRLR, … (human, UniProt P16471 25-622); assay: FACS on T47D cells
T2 construct: no tag is stated for these lines; also called prolactin receptor
T2 sequence: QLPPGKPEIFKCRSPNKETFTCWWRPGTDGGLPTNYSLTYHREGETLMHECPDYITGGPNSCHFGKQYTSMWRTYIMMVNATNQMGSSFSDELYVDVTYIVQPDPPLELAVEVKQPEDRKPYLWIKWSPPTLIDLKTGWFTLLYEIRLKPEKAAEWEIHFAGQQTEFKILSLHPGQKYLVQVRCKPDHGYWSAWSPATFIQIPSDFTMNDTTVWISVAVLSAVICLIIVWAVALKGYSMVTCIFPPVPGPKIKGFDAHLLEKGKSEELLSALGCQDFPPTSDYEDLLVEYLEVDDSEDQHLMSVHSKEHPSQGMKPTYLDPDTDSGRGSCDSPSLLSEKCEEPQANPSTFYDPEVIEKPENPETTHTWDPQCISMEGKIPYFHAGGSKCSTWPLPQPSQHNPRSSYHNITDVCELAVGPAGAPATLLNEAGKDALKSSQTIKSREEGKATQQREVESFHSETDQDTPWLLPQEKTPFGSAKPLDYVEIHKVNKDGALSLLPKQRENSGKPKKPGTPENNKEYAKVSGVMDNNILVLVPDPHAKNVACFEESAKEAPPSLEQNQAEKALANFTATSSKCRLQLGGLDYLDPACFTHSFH

[3] = biological target: T2, human PRLR on cells (endogenous on …); assay: cell-based or functional assay
[4] = biological target: T3, mouse PRLR construct with an HA tag on HEK293/mPRLR cells (mouse, UniProt Q08501 20-608); assay: FACS on HEK293/mPRLR cells
T3 construct: whole, on cells; stably transfected into HEK293
T3 sequence (looked up): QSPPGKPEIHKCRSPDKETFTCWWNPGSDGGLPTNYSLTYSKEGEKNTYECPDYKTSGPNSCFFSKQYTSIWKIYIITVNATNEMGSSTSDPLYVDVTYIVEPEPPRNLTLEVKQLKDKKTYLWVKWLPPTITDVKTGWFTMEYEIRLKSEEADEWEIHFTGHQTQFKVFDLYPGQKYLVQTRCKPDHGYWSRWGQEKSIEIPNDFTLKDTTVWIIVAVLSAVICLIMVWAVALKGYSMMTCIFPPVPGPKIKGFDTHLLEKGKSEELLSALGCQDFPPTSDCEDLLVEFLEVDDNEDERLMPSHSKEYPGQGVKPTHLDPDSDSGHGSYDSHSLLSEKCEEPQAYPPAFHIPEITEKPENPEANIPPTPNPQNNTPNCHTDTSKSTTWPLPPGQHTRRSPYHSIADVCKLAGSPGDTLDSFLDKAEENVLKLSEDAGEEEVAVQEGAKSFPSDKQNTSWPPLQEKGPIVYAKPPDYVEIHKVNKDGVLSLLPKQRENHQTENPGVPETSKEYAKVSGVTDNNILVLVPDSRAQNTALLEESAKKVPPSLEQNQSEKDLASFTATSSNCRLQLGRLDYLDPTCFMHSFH

[5] = biological target: T2, human PRLR on cells (endogenous on …); assay: cell-based or functional assay; remark: listed apart in the source
[6] = biological target: T4, hPRLR.mmh (soluble monomeric human PRLR) (human); assay: SPR (Biacore), antibody capture, 37 C
T4 construct: soluble monomeric PRLR protein
T4 chain: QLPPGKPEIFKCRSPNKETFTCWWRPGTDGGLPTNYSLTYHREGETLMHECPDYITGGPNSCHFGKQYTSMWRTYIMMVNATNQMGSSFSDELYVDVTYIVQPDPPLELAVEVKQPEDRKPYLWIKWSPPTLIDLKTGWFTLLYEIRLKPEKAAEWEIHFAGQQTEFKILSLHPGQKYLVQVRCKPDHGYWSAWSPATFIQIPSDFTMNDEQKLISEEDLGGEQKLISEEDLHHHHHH
Description: Measurements were conducted on a T200 Biacore instrument. Kinetic association (kₐ) and dissociation (kd) rate constants were determined by processing and fitting the data to a 1:1 binding model using Scrubber 2.0 curve fitting software.

B4: H1H6792P (antibody, human IgG1, V domains shown)
VH: EVQLVESGGGLVQPGRSLRLSCAASGFTLDDHAVHWVRQAPGKGLEWVSGISWNSVYIDYADSVKGRFTIFRDNAKNSLYLQMNSLRAEDTAFYYCARDIEGARDYWGQGTLVTVSS
VL: DIQMTQSPSSLSASVGDRVTITCRASQGIRNDLGWYQQKPGKAPKRLIYAASSLQSGVPSRFSGSGYGTEFTLTISSLQPEDFAPYYCLQHNSYPLTFGGGTKVEIK
notes: human IgG1 Fc (H1H)
FACS Cell Binding (Fold Above Background) [1]: 28 fold
FACS Cell Binding (Fold Above Background) [2]: 37 fold
IC50 of Blocking 5 nM PRL [M] (STAT5-Luc reporter, HEK293/hPRLR/STAT5-Luc cells) [3]: 5.7e-10 M
Percent Blocking at 100 nM Antibody (STAT5-Luc reporter) [3]: 100%
FACS Cell Binding (Fold Above Background) [4]: 3 fold
% Internalization relative to Control I (T47D cells, imaging) [5]: 156%
Kd [6]: 5.27 nM
T 1/2 [6]: 5 min
koff [6]: 0.00229 s⁻¹
kon [6]: 435000 M⁻¹ s⁻¹

B5: H1H6790P (antibody, human IgG1, V domains shown)
VH: EVQLVESGGGLVQPGGSLRLSCAASGFTFSSYAMTWVRQAPGKGLEWVSAITGSVGNTYYADSVKGRFTISRDNSKNTLYLQMNSLGAEDTAEYYCAKGAGMTTNWYLDLWGRGTLVTVSS
VL: DIVMTQSPDSLAVSLGARATINCKSSQSVLYSSNNQNYLTWYQQKPGQPPKLLIKWASTRESGVPDRFSGSGSGTDFTLTISSLQAEDVAVYYCQQYASSPYTFGQGTKLEIK
notes: human IgG1 Fc (H1H)
FACS Cell Binding (Fold Above Background) [1]: 24 fold
FACS Cell Binding (Fold Above Background) [2]: 34 fold
IC50 of Blocking 5 nM PRL [M] (STAT5-Luc reporter, HEK293/hPRLR/STAT5-Luc cells) [3]: 2.06e-10 M
Percent Blocking at 100 nM Antibody (STAT5-Luc reporter) [3]: 100%
FACS Cell Binding (Fold Above Background) [4]: 1 fold
% Internalization relative to Control I (T47D cells, imaging) [5]: 147%
Kd [6]: 3.5 nM
T 1/2 [6]: 4 min
koff [6]: 0.00329 s⁻¹
kon [6]: 940000 M⁻¹ s⁻¹

B7: H1H6807P (antibody, V domains shown)
VH: QVQLVESGGGVVQPGRSLRLSCAASGFTFSDYNMHWVRQAPGKGLEWVAVIWYDGSNKHYADSVKGRFTISRDNSKNTLYLQMNSLRAEDTAVYYCARDGFTIFGMVLDYWGQGTLVTVSS
VL: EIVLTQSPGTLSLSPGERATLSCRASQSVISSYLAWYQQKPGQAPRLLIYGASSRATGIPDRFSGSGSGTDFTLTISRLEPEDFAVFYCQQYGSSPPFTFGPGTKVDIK
notes: human IgG1 Fc (H1H)
FACS Cell Binding (Fold Above Background) [1]: 27 fold
FACS Cell Binding (Fold Above Background) [2]: 34 fold
IC50 of Blocking 5 nM PRL [M] (STAT5-Luc reporter, HEK293/hPRLR/STAT5-Luc cells) [3]: 6e-10 M
Percent Blocking at 100 nM Antibody (STAT5-Luc reporter) [3]: 100%
FACS Cell Binding (Fold Above Background) [4]: 2 fold
% Internalization relative to Control I (T47D cells, imaging) [5]: 147%
Kd [6]: 0.31 nM
T 1/2 [6]: 34 min
koff [6]: 0.000336 s⁻¹
kon [6]: 1.08e+06 M⁻¹ s⁻¹

Other lines, results leading:

FACS Cell Binding (Fold Above Background) [1]: 25 fold
FACS Cell Binding (Fold Above Background) [2]: 38 fold
Percent Blocking at 100 nM Antibody (STAT5-Luc reporter) [3]: 0%
FACS Cell Binding (Fold Above Background) [4]: 2 fold
% Internalization relative to Control I (T47D cells, imaging) [5]: 145%
Kd [6]: 6.37 nM
T 1/2 [6]: 1 min
koff [6]: 0.00822 s⁻¹
kon [6]: 1.29e+06 M⁻¹ s⁻¹
B1: H1H6797P (antibody, human IgG1, V domains shown)
VH: EVQLVESGGGLVQPGGSLRLSCIVSGFTFSGSWMSWVRQLPGKGLEWVANIKEDGSDSYYVDSVEGRFTISRDNAKSSLYLQMNSLRVDDTAVYFCARARTVPLHYWGQGTLVTVSS
VL: DIQMTQSPSTLSASVGDRVTITCRASQSINIWLAWYQQKPGKAPKLLIYRASYLESGVPSSFAGGGSGTEFTLTISSLQPDDFGTYYCQHYNSYPFTFGQGTKLEIK
notes: human IgG1 Fc (H1H)

FACS Cell Binding (Fold Above Background) [1]: 27 fold
FACS Cell Binding (Fold Above Background) [2]: 38 fold
Percent Blocking at 100 nM Antibody (STAT5-Luc reporter) [3]: 59%
FACS Cell Binding (Fold Above Background) [4]: 1 fold
% Internalization relative to Control I (T47D cells, imaging) [5]: 161%
Kd [6]: 3.91 nM
T 1/2 [6]: 7 min
koff [6]: 0.00161 s⁻¹
kon [6]: 411000 M⁻¹ s⁻¹
B2: H1H6783P (antibody, human IgG1, V domains shown)
VH: QVQLQQSGPGLVKPSQTLSLTCAISGDSVSSNTFAWNWIRQSPSRGLEWLGRTYYRSKWYIDYAESVKSRITITPDTSKNQFSLQLNSVTPEDTALYYCAGGYTYAPRGAFDIWGQGTMVTVSS
VL: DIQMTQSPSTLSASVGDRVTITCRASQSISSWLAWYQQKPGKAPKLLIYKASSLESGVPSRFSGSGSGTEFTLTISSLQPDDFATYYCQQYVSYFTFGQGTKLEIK
notes: human IgG1 Fc (H1H)

FACS Cell Binding (Fold Above Background) [1]: 22 fold
FACS Cell Binding (Fold Above Background) [2]: 34 fold
Percent Blocking at 100 nM Antibody (STAT5-Luc reporter) [3]: 0%
FACS Cell Binding (Fold Above Background) [4]: 1 fold
% Internalization relative to Control I (T47D cells, imaging) [5]: 151%
Kd [6]: 3.81 nM
T 1/2 [6]: 2 min
koff [6]: 0.0052 s⁻¹
kon [6]: 1.36e+06 M⁻¹ s⁻¹
B3: H1H6795P (antibody, human IgG1, V domains shown)
VH: QVQLVQSGAEVKKPGASVKVSCKASGYTFGTSGITWVRQAPGQGLEWMGWSSAYNGKTDYAQKFQDRVTMTTDTSTTTGYMEMRSLTSDDTAVYYCTTVVRRPFDFWGQGTLVTVSS
VL: DIQMTQSPSSLSASVGDRVTITCRASQDINNFLAWFQQKPGKAPKSLIYAASSLQSGVPSKFSGGGSGTDFALTISSLQPEDFATYYCQQYSSYPITFGQGTRLEIK
notes: human IgG1 Fc (H1H)

FACS Cell Binding (Fold Above Background) [1]: 29 fold
FACS Cell Binding (Fold Above Background) [2]: 39 fold
Percent Blocking at 100 nM Antibody (STAT5-Luc reporter) [3]: 0%
FACS Cell Binding (Fold Above Background) [4]: 1 fold
% Internalization relative to Control I (T47D cells, imaging) [5]: 162%
Kd [6]: 2.95 nM
T 1/2 [6]: 4 min
koff [6]: 0.00317 s⁻¹
kon [6]: 1.07e+06 M⁻¹ s⁻¹
B6: H1H6774P (antibody, human IgG1, V domains shown)
VH: EVQLVESGGGLAQPGGSLRLSCVASGFTFSTYWMSWVRQAPGKGLDWVGNIKQDGSEQNYVDSVRGRFTISRDNAKNSLFLQMNSLRAEDTGVYYCATLLTKGDYWGQGTLVTVSS
VL: DIQMTQSPSSLSASVGDSVTITCRASQDISNYLDWFQQKPGKAPKSLIYAASILQGGVPSRFSGSGYGTDFTLTISSLQPEDFATYYCRQYKTYPFTFGPGTKVDIK
notes: human IgG1 Fc (H1H)

FACS Cell Binding (Fold Above Background) [1]: 29 fold
FACS Cell Binding (Fold Above Background) [2]: 40 fold
IC50 of Blocking 5 nM PRL [M] (STAT5-Luc reporter, HEK293/hPRLR/STAT5-Luc cells) [3]: 1.05e-10 M
Percent Blocking at 100 nM Antibody (STAT5-Luc reporter) [3]: 100%
FACS Cell Binding (Fold Above Background) [4]: 2 fold
% Internalization relative to Control I (T47D cells, imaging) [5]: 154%
Kd [6]: 1.11 nM
T 1/2 [6]: 9.4 min
koff [6]: 0.00122 s⁻¹
kon [6]: 1.1e+06 M⁻¹ s⁻¹
B8: H1H6953N (antibody, human IgG1, V domains shown)
VH: EVQLLESGGGLVQPGGTLRLSCAASGFTFSAYAMSWVRQAPGKGLEWVSSINVRAGDTYYADSVKGRFTISRDNSKNTLFLLMNSLRAEDTAAYYCAKARYSSNWGFDFWGQGTLVTVSS
VL: DIVMTQSPDSLTVSLGARTTINCQSSQTILHSSNNHNYLAWYQQKPGLPPKLLIYWSSTRESGVPDRFSGSGSGTDFTLTISSLQAEDVAIYYCQQYSNTPYTFGQGTKLEIN
notes: also called H1M6953N
